Data: publication PMC10925295 (bioRxiv, 2024)

Columns and labels:
[1] = target: UbcH5B-GSlinker-ccRING3 fusion protein (UniProt Q86YT6); assay: crystal structure
[2] = target: the molecule itself; assay: SEC-MALS
[3] = target: the molecule itself; assay: crystal structure

Molecule: UbcH5B-GSlinker-ccRING3 fusion protein (from UniProt Q86YT6 936-1006)
- stoichiometry N [1]: 2

B1: ANK-RING1-3 of hMIB1 (residues 417-1006) (domain or fragment)
chain: QLLKKLFETQESGDLNEELVKAAANGDVAKVEDLLKRPDVDVNGQCAGHTAMQAASQNGHVDILKLLLKQNVDVEAEDKDGDRAVHHAAFGDEGAVIEVLHRGSADLNARNKRRQTPLHIAVNKGHLQVVKTLLDFGCHPSLQDSEGDTPLHDAISKKRDDILAVLLEAGADVTITNNNGFNALHHAALRGNPSAMRVLLSKLPRPWIVDEKKDDGYTALHLAALNNHVEVAELLVHQGNANLDIQNVNQQTALHLAVERQHTQIVRLLVRAGAKLDIQDKDGDTPLHEALRHHTLSQLRQLQDMQDVGKVDAAWEPSKNTLIMGLGTQGAEKKSAASIACFLAANGADLSIRNKKGQSPLDLCPDPNLCKALAKCHKEKVSGQVGSRSPSMISNDSETLEECMVCSDMKRDTLFGPCGHIATCSLCSPRVKKCLICKEQVQSRTKIEECVVCSDKKAAVLFQPCGHMCACENCANLMKKCVQCRAVVERRVPFIMCCGGKSSEDATDDISSGNIPVLQKDKDNTNVNADVQKLQQQLQDIKEQTMCPVCLDRLKNMIFLCGHGTCQLCGDRMSECPICRKAIERRILLY
- stoichiometry N [2]: 2

B2: ccRING3 region of human MIB1 (third RING domain and adjacent coiled coil region, residues 936-1006) (domain or fragment)
chain: KDKDNTNVNADVQKLQQQLQDIKEQTMCPVCLDRLKNMIFLCGHGTCQLCGDRMSECPICRKAIERRILLY
- stoichiometry N [3]: 2
